The source of these data is PMC10398351, “Structural and molecular insight into antibody recognition of dynamic neoepitopes in membrane tethered MUC1 of pancreatic cancer cells and secreted exosomes” (RSC Chemical Biology, 2023).

“Also recorded” adds a separate entry of the source.

Assay [1] has as its target MUC1 bearing ST antigen at the immunodominant DTR motif. Briefly: SPR affinity of SN-131 with MUC1 bearing ST antigen. The format is binding. Particulars: SN-131 with MUC1 bearing ST antigen at the immunodominant DTR motif; abstract. The protocol: The binding affinity of SN-131 Fab with MUC1 TRD models was measured by using a Biacore 2000 surface plasmon resonance (SPR) instrument (GE Healthcare). Synthetic MUC1 TRD models 2–4 with a C-terminal cysteine residue were immobilized on a CM5 chip (GE Healthcare) by a standard protocol of the maleimide coupling. The SN-131 Fab was injected over the surface of the immobilized MUC1 TRD models 2–4 and three kinetic parameters, the association rate constant (kon), the dissociation rate constant (koff), and the equilibrium dissociation constant (KD) were obtained with BIAevaluation 4.1 software (GE Healthcare) using a bivalent binding model. Isothermal titration calorimetry (ITC) experiments were also carried out to determine the thermodynamic parameters of the interaction between SN-131 and non-glycosylated-/Tn-MUC1 TRDs.7 All experiments and analyses were performed by using nano ITC (TA Instrument) and Nanoanalyze based on as independent model.

For assay [2], the system named is MUC1 TRD. The following applies: cited from earlier work. From the text: By using a robust synthetic glycopeptide library,[21–24] we have established a straightforward approach to antibodies recognizing cancer-relevant glycopeptidic epitopes modified with aberrant O-glycans, namely “dynamic neoepitopes”, found in the MUC1 TRD (Fig. 2a).[19,20] […] We considered that SN-131 is a highly potential anti-MUC1 antibody because this antibody binds specifically MUC1 TRD having core 1 type O-glycans overexpressed in many cancers including pancreatic cancer but not core 2 type O-glycans found in normal cells. However, the structural and molecular basis of the epitope recognition by SN-131 remain to be fully understood. We needed to investi ...

In the next assay the test system is PANC-1 cells. Kind of assay: Live cell imaging of Alexa488-conjugated SN-131 on PANC-1 cells. The format is cell-based, human. Particulars: Alexa 488 conjugated SN-131 10 μg mL−1, 2 h at 37 °C. The protocol: PANC-1 cells (5 × 10^4 cells per well) were cultured with 10% FBS and 2 mM L-glutamine on an 8-well imaging plate (Fischer Scientific) for 48 h in 5% CO2 at 37 °C. Then, Alexa 488 conjugated SN-131 (10 μg mL^−1), 10 μM MUC1-5ST (8), or MAG (5 μg mL^−1) dissolved in Opti-MEM medium (gibco) was co-incubated with PANC-1 cells for 2 h in 5% CO2 at 37 °C. Cells were washed with Opti-MEM and stained with Hoechst 33342 (2.5 ng mL^−1 in Opti-MEM) for 30 min. […] The pictures were imaged with 60xlens and the following filter set (Blue: #OP-66843 Excitation 360/40, Emission 460/50, Green: #OP-66836, Excitation 470/40, Emission 535/50, Red: #OP-66837, Excitation 540/25, Emission […]). Imaging pictures were analysed by BZ-II Analyzer software (Keyence, Osaka).

Assay [3] deals with MUC1 TRD. Kind of assay: Epitope mapping of SN-131 on glycopeptide microarray. The format is binding. Particulars: SN-131 1 µg/mL, 2 h at room temperature, Cy3 labeled anti-mouse IgG. The protocol: 100 mM solutions of the synthetic glycopeptides capped with ketone-linker at the N-terminus (5–9) dissolved in 25 mM sodium acetate buffer (pH 5.0) containing 0.005% Tween-20 (w/v) were robotically printed on plastic slides coated with a copolymer carrying aminooxy-/phosphorylcholine functional groups according to the protocol reported previously.[20,22,24] Detailed conditions for the binding assay are described in the ESI. ^† […]
as Additional Data in Supporting Information. Compounds 3 , 5, and 6 were synthesized previously5,7,8 and available for the present study.
Glycopeptide microarray. 100 mM solutions of the synthetic glycopeptides capped with ketone-linker at N -terminus (5~9) dissolved in 25 mM sodium acetate buffer (pH 5.0) containing 0.005% Tween- 20 (w/v) were robotically printed on plastic slides coated with a copolymer carrying aminooxy-/phosphorylcholine functional groups according to the protocol reported previ ousl y.5,7-9 For the epitope analysis of SN-131, antibody solutions (1 µg/mL) were added to each well of the slides. After incubation for 2 h at room temperature, the slides were rinsed and added with Cy3 labeled anti-mouse IgG polyclonal antibody (1 µg/mL). After washing, fluorescence of the wells were measured using a GlycoStation 1200 system and analysed with the ArrayVision […]
Anti-MU C1 mA b (SN -131). […]

B1: SN-131: anti-MUC1 mAb (clone 1B2, IgG2a) binding MUC1 TRD with Tn, T and ST antigens at the DTR motif (antibody, V domains shown)
VH: QVQLQQSGAELARPGASVKLSCKASGYTFTNYGLSWVKQRTGQGLEWIGENHPGSGIIYHNEKFRGKATLTADKSSSTAYVQLSSLTSEDSAVYFCARSSGTRGFAYWGQGTLVTVSA
VL: DVLMTQTPLSLPVSLGDQASISCRSSQSIVHSNGNTYLEWYLQKPGQSPKLLIYKVSNRFSGVPDRFSGSGSGTDFTLKISRVEAEDLGVYYCFQGSHGPWTFGGGTKLEIK
One may read the Kd as the free concentration of one partner at which half of the binding sites on the other are occupied at equilibrium, for simple one-to-one binding. A high value points to a looser complex. As for B1, binding in assay [1] was put at a Kd of 1.58 nM. Moreover, the “glycoform specificity of binding to MUC1 TRD” value in the assay on MUC1 TRD [2] was “does not bind to MUC1 TRD when the threonine residue of this immunodominant region is modified with STn, dST, or core 2-type mature complex O-glycan structures”. For the same molecule, the “binding to PANC-1 cell surface MUC1 TRD” value in the assay with PANC-1 cells is reported as “binds strongly”. Further, in the assay on MUC1 TRD [3], the “binding of SN-131 to MUC1 TRD glycoforms (epitope mapping, in words)” value was “binds MUC1 TRD with Tn, T, and ST antigens attached to the immunodominant DTR motif; also recorded: did not bind to non-glycosylated MUC1 TRD”.
